T1: OsBIHD1 207-527 (HD domain) (Oryza sativa (rice; Pik-H4 NIL?), UniProt Q6QUW0 207-527)
T1 sequence: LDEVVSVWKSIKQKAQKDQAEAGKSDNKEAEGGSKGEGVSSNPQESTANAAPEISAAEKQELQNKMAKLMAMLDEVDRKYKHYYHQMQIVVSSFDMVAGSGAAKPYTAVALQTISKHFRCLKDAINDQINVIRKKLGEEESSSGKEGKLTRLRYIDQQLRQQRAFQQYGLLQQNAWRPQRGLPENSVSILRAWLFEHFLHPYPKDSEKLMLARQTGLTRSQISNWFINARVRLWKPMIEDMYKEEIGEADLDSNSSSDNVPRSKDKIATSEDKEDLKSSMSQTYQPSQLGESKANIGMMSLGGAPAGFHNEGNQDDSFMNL


Biological target: T1, OsBIHD1 207-527 (HD domain)
Experiment: EMSA; EMSA: 25 C, 30 min, binding buffer of Beyotime Chemiluminescent EMSA Kit GS009 (composition, salt and pH not stated); 10% polyacrylamide gel, 0.5x TBE
Conditions: protein: recombinant; tags: His (pET28a); label: biotin 3'

Binder	binding result
OsACO3 promoter TGTCA probe (dsDNA) DNA 1: AAATTCTGTCATCATCA DNA 2: TGATGATGACAGAATTT	binds
CYP734A2 promoter TGTCA probe (dsDNA) DNA 1: TGCATTGTCAGTTAC DNA 2: GTAACTGACAATGCA	binds

From publication PMC5292422, “NBS-LRR Protein Pik-H4 Interacts with OsBIHD1 to Balance Rice Blast Resistance and Growth by Coordinating Ethylene-Brassinosteroid Pathway”
